Measurements published in US12012615B2, “Method of making induced pluripotent stem cells using p53 inhibitors” (Kyoto University, priority 2008, dated 2024).

Columns and labels:
HDF = experiment: iPS cell generation from HDF with p53-regulated genes, with or without the p53 shRNA; assay type: cell-based, human; details: four factors and the p53 shRNA; colonies counted day 28
Source text: Genes regulated (4 increased and 7 decreased) by p53 suppression were introduced into HDFs together with the four reprogramming factors (FIG. 24A) or the four reprogramming factors and the p53 shRNA (FIG. 24B). On day 24 (FIG. 24A) or day 28 (FIG. 24B) post-transduction, numbers of iPS cell colonies were counted. **; p<0.01 compared to DsRed control (n=3).
Among these we transduced four increased genes and seven decreased genes by retroviruses into HDF, together with either the four reprogramming factors alone, or with the four factors and the p53 shRNA.

p53-null MEF = experiment: iPS cell generation from p53-null MEF with forced expression of p21; assay type: cell-based, mouse
[1] = tested on: Fibroblasts (MEF) from a fetal p53 hetero-deficient mouse having the Nanog reporter; experiment: Establishment of iPS cells (GFP-positive colonies) from MEFs with 4 factors and a p53 inhibitor; assay type: cell-based; details: 4 factors; 6 nM in medium from day 6; counted on day 20; compared with cells treated with DMSO
Protocol: The effects of a p53 inhibitor on the efficiency of establishment of iPS cells were examined. The retrovirus used for reprogramming was prepared by introducing a retrovirus expression vector (pMXs-Oct3/4, pMXs-Sox2, pMXs-Klf4, pMXs-cMyc) into Plat-E cells that had been sown to a 6-well culture plate (Falcon) at 0.6×10^6 cells per well on the previous day. The culture broth used was DMEM/10% FCS (DMEM (Nacalai tesque) supplemented with 10% fetal bovine serum), and cultured at 37° C. and 5% CO2. For vector transfer, 4.5 μL of the FuGene6 transfection reagent (Roche) was placed in 100 μL of Opti-MEM I Reduced-Serum Medium (Invitrogen), and this mixture was allowed to stand at room temperature for 5 minutes. Thereafter, 1.5 μg of each expression vector was added, and the mixture was further allowed to stand at room temperature for 15 minutes, and then added to Plat-E culture broth. On day 2, the Plat-E supernatant was exchanged with a fresh supply of the medium; on day 3, the culture supernatant was recovered and filtered through a 0.45 μm sterile filter (Whatman), polybrene (Nacalai) was added to obtain a concentration of 4 μg/mL, and this was used as the viral liquid.
Fibroblasts (MEF) were isolated from a fetal p53 hetero-deficient mouse having the Nanog reporter (13.5 days after fertilization). […] GFP-positive colonies were counted on day 20. […]

[2] = tested on: Oct4-GFP, p53-heterozygous MEF; experiment: iPS generation by the three factors co-transduced with wild-type or mutant p53, p53-heterozygous MEFs; assay type: cell-based, mouse; details: retroviral co-transduction, counted 28 days after transduction
Source text: (§1) FIGS. 13A and 13B show iPS generation from p53 heterozygous or homozygous MEFs by the three factors co-transduced with wild-type or mutant p53. […] After retroviral transduction, 5000 cells were collected and GFP-positive colonies were counted 28 days after the transduction. Data of three independent experiments are shown. […] After retroviral transduction, 5000 live cells were collected and GFP-positive colonies were counted 28 days after the transduction. Data of two independent experiments are shown.
(§2) We used either the Nanog-GFP or Oct3/4-GFP reporter system for sensitive and specific identification of iPS cells (Okita K. et al. Nature 448, 313 (2007)). […] The cells were infected next day (day 0) with retrovirus made from Plat-E. On day 5, cells were reseeded either at one cell per well of 96-plates by a cell sorter (FACS Aria, Beckton Dekinson) or 5000 cells per 100 mm-dish. Puromycin selection ([…]) was initiated on day 13 in the four-factor protocol and on day 19 in the three factor protocol. Numbers of GFP positive colonies were determined on day 21 for the four-factor protocol and on day 28 in the three factor protocol.
(§3) First, we tested the effect of dominant negative mutants of p53 on the generation of iPS cells. […] After sequencing verification, cDNA was transferred to pMXs-gw by Gateway cloning technology (Invitrogen). […]

[3] = tested on: Fibroblasts (MEFs) from a fetal p53 hetero-deficient mouse having a Nanog reporter; experiment: Establishment of iPS cells from MEFs with 4 or 3 factors and the dominant negative mutant p53P275S; assay type: cell-based; details: compared with mutation-free p53 or DsRedExpress
Protocol: The function of endogenous p53 was inhibited using a dominant negative mutant of p53, and its influence on the efficiency of establishment of iPS cells was investigated. The dominant negative mutant used was p53P275S, prepared by causing a point mutation of the proline at the position 275 located in the genome-binding region of p53 to serine (Annemieke de Vries (2002). PNAS 99, 2948-2953).
The retrovirus used for reprogramming was prepared by introducing retrovirus expression vector (pMXs-Oct3/4, pMXs-Sox2, pMXs-Klf4, pMXs-cMyc, pMXs-p53P275S) into Plat-E cells that had been sown to a 6-well culture plate (Falcon) at 0.6×10^6 cells per well on the previous day (for how to prepare pMXs-p53P275S, see Example 6 below). The culture broth used was DMEM/10% FCS (DMEM (Nacalai tesque) supplemented with 10% fetal bovine serum), and cultured at 37° C. and 5% CO2. For vector transfer, 4.5 μL of the FuGene6 transfection reagent (Roche) was placed in 100 μL of Opti-MEM I Reduced-Serum Medium (Invitrogen), and this mixture was allowed to stand at room temperature for 5 minutes. Thereafter, 1.5 μg of each expression vector was added, and the mixture was further allowed to stand at room temperature for 15 minutes, and then added to Plat-E culture broth. […]
GFP-positive colonies were counted on day 21 for the 4 factors, and on day 28 for the 3 factors. […]

Nanog-GFP, p53-null MEFs = experiment: iPS generation by the three factors co-transduced with wild-type or mutant p53, p53-null MEFs; assay type: cell-based, mouse; details: retroviral co-transduction, counted 28 days after transduction
Source text: as §1, §2, §3

p21: cyclin-dependent kinase inhibitor 1A (p21, Cip1), p53 target gene, forcibly expressed by retrovirus
counteraction of the effect of the p53 shRNA on iPS cell generation (HDF): effectively counteracted | iPS cell generation (p53-null MEF): markedly decreased

O=[N+]([O-])c1ccc(-c2cn3c4c(sc3n2)CCCC4)cc1 [Pifithrin α, p-Nitro, Cyclic, 2-(4-Nitrophenyl)imidazo[2,1-b]-5,6,7,8-tetrahydrobenzothiazole]
increase in the number of GFP-positive colonies [1]: about 4 times

B1: p53P275S: dominant negative mutant of mouse p53, proline 275 to serine, expressed from retroviral vector pMXs-p53P275S (protein, UniProt P02340 1-390, looked up, variant P275S)
Cellular tumor antigen p53: MTAMEESQSDISLELPLSQETFSGLWKLLPPEDILPSPHCMDDLLLPQDVEEFFEGPSEALRVSGAPAAQDPVTETPGPVAPAPATPWPLSSFVPSQKTYQGNYGFHLGFLQSGTAKSVMCTYSPPLNKLFCQLAKTCPVQLWVSATPPAGSRVRAMAIYKKSQHMTEVVRRCPHHERCSDGDGLAPPQHLIRVEGNLYPEYLEDRQTFRHSVVVPYEPPEAGSEYTTIHYKYMCNSSCMGGMNRRPILTIITLEDSSGNLLGRDSFEVRVCACSGRDRRTEEENFRKKEVLCPELPPGSAKRALPTCTSASPPQKKKPLDGEYFTLKIRGRKRFEMFRELNEALELKDAHATEESGDSRAHSSYLKTKKGQSTSRHKKTMVKKVGPDSD
number of GFP-positive colonies / efficiency of iPS cell generation [2]: substantial increase | increase in the number of GFP-positive colonies ([3]; 3 factors, counted on day 28): about 3 times | increase in the number of GFP-positive colonies ([3]; 4 factors, counted on day 21): about 4 times

B2: S58A: transactivation-negative mouse p53 mutant, serine 58 to alanine, retrovirally expressed (protein, UniProt P02340 1-390, looked up, variant S58A)
Cellular tumor antigen p53: MTAMEESQSDISLELPLSQETFSGLWKLLPPEDILPSPHCMDDLLLPQDVEEFFEGPAEALRVSGAPAAQDPVTETPGPVAPAPATPWPLSSFVPSQKTYQGNYGFHLGFLQSGTAKSVMCTYSPPLNKLFCQLAKTCPVQLWVSATPPAGSRVRAMAIYKKSQHMTEVVRRCPHHERCSDGDGLAPPQHLIRVEGNLYPEYLEDRQTFRHSVVVPYEPPEAGSEYTTIHYKYMCNSSCMGGMNRRPILTIITLEDSSGNLLGRDSFEVRVCACPGRDRRTEEENFRKKEVLCPELPPGSAKRALPTCTSASPPQKKKPLDGEYFTLKIRGRKRFEMFRELNEALELKDAHATEESGDSRAHSSYLKTKKGQSTSRHKKTMVKKVGPDSD
number of GFP-positive colonies (Nanog-GFP, p53-null MEFs): weaker effects

B3: D278N: transactivation-negative mouse p53 mutant, aspartic acid 278 to asparagine, retrovirally expressed (protein, UniProt P02340 1-390, looked up, variant D278N)
Cellular tumor antigen p53: MTAMEESQSDISLELPLSQETFSGLWKLLPPEDILPSPHCMDDLLLPQDVEEFFEGPSEALRVSGAPAAQDPVTETPGPVAPAPATPWPLSSFVPSQKTYQGNYGFHLGFLQSGTAKSVMCTYSPPLNKLFCQLAKTCPVQLWVSATPPAGSRVRAMAIYKKSQHMTEVVRRCPHHERCSDGDGLAPPQHLIRVEGNLYPEYLEDRQTFRHSVVVPYEPPEAGSEYTTIHYKYMCNSSCMGGMNRRPILTIITLEDSSGNLLGRDSFEVRVCACPGRNRRTEEENFRKKEVLCPELPPGSAKRALPTCTSASPPQKKKPLDGEYFTLKIRGRKRFEMFRELNEALELKDAHATEESGDSRAHSSYLKTKKGQSTSRHKKTMVKKVGPDSD
number of GFP-positive colonies (Nanog-GFP, p53-null MEFs): weaker effects
